Earlier results as cited in publication PMC5535146.
Like-named read-outs stand apart in the source and are kept apart here.

What was measured:
[1] = biological target: calmodulin (UniProt P0DP23)
[2] = biological target: calmodulin (UniProt P0DP23); remark: listed apart in the source

Row | Substance | Kd [1] | Kd [2]
1 | edema factor (from UniProt P40136) | 20 nM | –
2 | CyaA adenylate cyclase AC (from UniProt P0DKX7) | – | 0.2 nM
